US20240270871A1 (HUMMINGBIRD BIOSCIENCE PTE, published 2024)
Read-outs that look alike come from different tables or passages of the source.

Legend:
Test in all cases: BLI (Octet QK384), IgG captured on anti-human Fc (AHC) biosensors, recombinant human HER3 as analyte, 1:1 global fit, averaged
[1] = target: T1, recombinant human HER3 (human, UniProt P21860 20-643, limits assumed)
Method: (§1) Biosensors were first dipped in wells containing assay buffer for 60 s to obtain baseline readings, and then IgGs (at a concentration of 12.5 nM) were captured for 120 s, followed by PBST wash for 60 s to remove any unbound antibody or non-specifically-bound protein and the second baseline was collected after IgG capture. Kinetic measurements for antigen binding were performed by dipping each of the antibody-coated biosensors into wells containing a single serial diluted concentration of recombinant human HER3 for 120 s, followed by a 120 s dissociation time by transferring the biosensors into assay buffer containing wells. AHC biosensors were regenerated for 5 s×4 times after each kinetic cycle using 10 mM glycine pH 1.7 to remove bound protein and washed with assay buffer before a new kinetic cycle. Six 1:2 serial dilutions of recombinant human HER3 (at concentrations ranging from 500 nM to 16 nM), were used to ensure an ideal concentration range of antigen, and binding signal spanning the dynamic range of the assay. Measurements for all sensors were generated in real time in parallel. Data analysis was preformed using Octet QK384 analysis 9.0 software (Pall ForteBio) according to manufacturer's recommendations for analysing a high-affinity antigen-antibody kinetics. […]

[2] = target: T1, recombinant human HER3; remark: listed apart in the source
Method: as §1

[3] = target: T1, recombinant human HER3; remark: listed apart in the source
Method: as §1

[4] = target: T1, recombinant human HER3; remark: listed apart in the source
Method: as §1

[5] = target: T1, recombinant human HER3; remark: listed apart in the source
Method: as §1

[6] = target: T1, recombinant human HER3; remark: listed apart in the source
Method: as §1

[7] = target: T1, recombinant human HER3; remark: listed apart in the source
Method: as §1

Measured: Kd

T1 sequence (P21860 20-643 limits assumed): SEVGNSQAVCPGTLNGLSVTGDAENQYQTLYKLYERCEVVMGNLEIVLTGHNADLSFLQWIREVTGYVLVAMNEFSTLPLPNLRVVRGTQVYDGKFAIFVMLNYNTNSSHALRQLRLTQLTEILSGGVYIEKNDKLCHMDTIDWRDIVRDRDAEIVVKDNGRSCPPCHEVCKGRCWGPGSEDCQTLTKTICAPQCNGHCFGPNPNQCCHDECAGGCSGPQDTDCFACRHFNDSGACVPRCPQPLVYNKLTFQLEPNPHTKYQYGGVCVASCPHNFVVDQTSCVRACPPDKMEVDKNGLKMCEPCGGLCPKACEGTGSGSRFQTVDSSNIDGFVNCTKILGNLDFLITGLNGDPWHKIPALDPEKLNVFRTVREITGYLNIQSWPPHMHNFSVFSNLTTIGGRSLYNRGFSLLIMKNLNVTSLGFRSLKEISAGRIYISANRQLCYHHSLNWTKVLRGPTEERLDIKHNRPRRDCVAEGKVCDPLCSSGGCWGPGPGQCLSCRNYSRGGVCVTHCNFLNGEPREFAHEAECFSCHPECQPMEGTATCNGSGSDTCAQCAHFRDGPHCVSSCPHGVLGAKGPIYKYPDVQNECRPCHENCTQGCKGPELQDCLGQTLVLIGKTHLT

B1: 10D1F hIgG1 (antibody, V domains shown)
VH: QVQLQESGPGLVKPSQTLSLTCTVSGYSITSGYSWHWIRQHPGKGLEWIGSIRYSGGTDYNPSLKSLVTISADTSKNQFSLKLSSVTAADTAVYYCARMTTAPWYPFDYWGQGTTVTVSS
VL: DIQMTQSPSSVSASVGDRVTITCKASQIVGSNVAWYQQKPGKAPEPLIYSASYLYSGVPSRFSGSGSGTDFTLTISSLQPEDFATYYCQQYSSHPLTFGQGTKLEIKR
notes: also called 10D1F.A; antibody product of clones 2-1.1, 2-1.2, 2-1.3, 2-1.4, 2-3.12, 2-3.13, 2-3.15
< 1 pM: all assays above
